Consider four molecules from patent publication US20250313627A1 (FUSE BIOTHERAPEUTICS, published 2025).

In test [1] the target is T1, recombinant His tagged human ROR1 (human, UniProt Q01973 30-403, limits assumed).
T1 construct: Analyte in the BLI assay; also called Human ROR1-His; recombinant ROR1
Nature of the test: BLI (Octet), FUSE protein on the tip, His tagged ROR1 in solution. How it is done: As shown in FIGS. 5A-5D, the binding affinities (KD) of TCEs for ROR1 were assessed. We examined the magnitude by which several TCEs and mutants thereof bind to recombinant ROR1. Kinetic binding graphs were generated via Bio-Layer Interferometry (BLI) using an Octet system. For each TCE, the biosensor tips were coated with FUSE proteins at 15 μg/ml and probed with either recombinant His tagged ROR1 at concentrations ranging from 100 pM to 10 μM. […] The binding affinity (KD), on rate (k-on) and off rate (k-dis), are summarized for ROR1 in FIG. 5D.
We further examined the impact of mutating the cysteine residues located in CDR1 and CDR3 of 2A11 VHH and 5A1 VHH.
(In general: BLI is a label-free optical method that tracks binding on a fibre tip over time.)

Test [2] concerns the target T2, human ROR1 (Receptor Tyrosine Kinase-Like Orphan Receptor 1) on the cell surface (human, UniProt Q01973 30-937).
T2 construct: whole, on cells; engineered into B16-F10 (high density) and LS174T (low density) cells; also called B16-F10-ROR1-H; LS174T-ROR1-L
Nature of the test: flow cytometry on B16-F10 cells engineered to express human ROR1, secondary antibody to the IgG1 Fc. How it is done:
As shown in FIG. 15 the apparent binding affinity (EC50-binding) of the ROR1 specific VHH-Fc incorporating either the non humanized VHH clone 5A1 (FUSE179; black circle), the humanized clone 5A1-FA9-HK1 (FUSE559; black square) or the humanized clone 5A1-HK1 (FUSE524; black triangle) was calculated. Shown is a non-linear x-y plot of binding to B16-F10 cell engineered to express human ROR1 relative to the concentration of test article used for staining. A Hen Egg Lysozyme (HEL)-specific antibody was used as the negative isotype control. Binding was measured via flow cytometry using a fluorescently labeled secondary antibody specific for the Fc domain of IgG1. A summary table of EC50s and maximum MFI is shown beneath under the graph.
On the technique in general: Flow cytometry measures light scatter and fluorescence of single cells or particles in a stream.

Test [3] deals with T1, recombinant His tagged human ROR1. Put plainly: SPR (Biacore 8K), recombinant human ROR1 amine-coupled on a CM5 chip (4400 RU), analyte 200nM, 1:1 binding fit [table below it]. On the procedure:
(§1) Protein test article binding to recombinant human ROR1 (Acro Biosystems, RO1-H522y) was detected on a BIAcore 8K (Cytiva) biosensor system using an SPR assay. Briefly, a carboxymethylated CM5 sensor chip was activated with 1:1 mixture of 0.4 M N-ethyl-N-(3-dimethylaminopropyl) carbodiimide and 0.1 M′ N-hydroxysuccinimide. Recombinant human ROR1 in 10 mM NaOAc (pH5) was then immobilized on the sensor chip by amine-coupling according to the manufacturer's instructions to yield the stable RU of 4400. Unreacted sites were blocked with 1M ethanolamine/HCl (pH 8). Control flow cells (blank) were activated and blocked in the absence of ROR1. Flow cells were routinely equilibrated with running buffer (PBS, 0.005% surfactant P20). Test article proteins used for assessment of binding to recombinant human ROR1 binding were diluted in HBS-EP running buffer and injected into the sensor chip at different concentrations. […] Data from duplicate assays were modeled for binding equilibrium and dot plots for 200 nM of protein test article was calculated. Association constant (ka), dissociation constant (kd) and binding affinity (KD=kd/ka) were generated from integrated software in the BIAcore 8K system.
(§2) Shown are sensorgrams of surface plasmon resonance (SPR) data generated via Biacore analysis. A summary table of binding affinity (KD), on rate (k-a) and off rate (kd) is shown below FIG. 16B.
(In general: Surface plasmon resonance follows binding to a sensor surface in real time, without labels.)

The target in test [4] is T2, human ROR1 (Receptor Tyrosine …). Put plainly: flow cytometry, LS174T cells expressing human ROR1 (low density). On the procedure:
(§3) As shown in the tables below, mouse B16-F10 melanoma (Tables 9A-9F) or LS174T human colorectal adenocarcinoma (Tables 9G-9H) cells genetically engineered to express human ROR1 at high and low densities, respectively, were stained for flow cytometric analysis with 100 nM of humanized variants of the ROR1 specific VHHs, 5A1 or 2A11 in either a VHH-Fc format or the Ac13 format shown in FIG. 1. Cells were analyzed on a flow cytometer after the primary test article was fluorescently tagged with a goat anti human IgG-Fc specific PE secondary antibody. The positive control used was PE conjugated anti-human ROR1 clone 2A2. Negative controls included a PE labeled mouse IgG Ab, the secondary antibody only, the combination of a Hen Egg Lysozyme (HEL) specific antibody plus goat anti human IgG-Fc specific PE and Fluorescence Minus One (FMO). Other controls included the non-humanized version of 5A1-Fc (FUSE179), 2A11-Fc (FUSE112) and 5A1-Ac13 (FUSE488). Humanized variants were generated using computational design (FUSE489, FUSE497-498, FUSE563, FUSE569-570, and BI-HU9-VHH11-33), a yeast display library in which mutations were inserted into the Vernier zone residues of human framework indicated in GenBank accession number M99660 (FUSE524-525, FUSE589, FUSE597-598, FUSE537, FUSE661-662, BI-HU9-HK and BI-HU9-HK-1), and a second yeast display library in which mutations were inserted into the Vernier zone residues of human framework indicated in GenBank accession number AWH66715 and amino acid position 103 within CDR3 (FUSE559, FUSE590-596, BI-HU9-VH9-1, FUSE654-655 and FUSE661-662. Affinity matured variants of FUSE559 were also generated using computational design (F22158101-21; Table 9H).

For test [5] the target is unchanged. Nature of the test: flow cytometry, B16-F10 cells expressing human ROR1 (high density). On the procedure:
as §3

For test [6], the target named is T1, recombinant His tagged human ROR1. Nature of the test: SPR (Biacore 8K), recombinant human ROR1 amine-coupled on a CM5 chip (4400 RU), analyte 200nM, 1:1 binding fit; column '1:1 binding ka (1/Ms)' [table below it]. On the procedure: as §1, §2
The target of test [7] is T2, human ROR1 (Receptor Tyrosine …). Put plainly: flow cytometry, B16-F10 cells expressing human ROR1 (high density). On the procedure: as §3
This is another data set of the same source.

Test [8] has as its target T1, recombinant His tagged human ROR1. Put plainly: SPR (Biacore 8K), recombinant human ROR1 amine-coupled on a CM5 chip (4400 RU), analyte 200nM, 1:1 binding fit; column 'kd (1/s)' [table below it]. On the procedure: as §1, §2
The target in test [9] is T2, human ROR1 (Receptor Tyrosine …). Nature of the test: flow cytometry, LS174T cells expressing human ROR1 (low density). On the procedure:
as §3
This is another data set of the same source.

For test [10] the target is unchanged. Nature of the test: flow cytometry on ROR1+ MDA-MB-231 cells, secondary antibody to the IgG1 Fc; table row 'Binding EC50 (nM)', the graph's axis reads 'Concentration (pM)'.
The next test concerns the target T3, human CD3 on T cells (human, UniProt P07766 23-207; P09693 23-182; P04234 22-171; P20963 22-164).
T3 construct: whole, on cells; also called human CD3 on Jurkat T cells; human CD3 on T cells isolated from human PBMC
Nature of the test: flow cytometry on CD3+ Jurkat NFAT Lucia cells, secondary antibody to the IgG1 Fc.

For test [11], the target named is T2, human ROR1 (Receptor Tyrosine …). Nature of the test: flow cytometry, B16-F10 cells expressing human ROR1 (high density). How it is done:
as §3
The source holds these as a separate data set.

T2 sequence (Q01973 30-937): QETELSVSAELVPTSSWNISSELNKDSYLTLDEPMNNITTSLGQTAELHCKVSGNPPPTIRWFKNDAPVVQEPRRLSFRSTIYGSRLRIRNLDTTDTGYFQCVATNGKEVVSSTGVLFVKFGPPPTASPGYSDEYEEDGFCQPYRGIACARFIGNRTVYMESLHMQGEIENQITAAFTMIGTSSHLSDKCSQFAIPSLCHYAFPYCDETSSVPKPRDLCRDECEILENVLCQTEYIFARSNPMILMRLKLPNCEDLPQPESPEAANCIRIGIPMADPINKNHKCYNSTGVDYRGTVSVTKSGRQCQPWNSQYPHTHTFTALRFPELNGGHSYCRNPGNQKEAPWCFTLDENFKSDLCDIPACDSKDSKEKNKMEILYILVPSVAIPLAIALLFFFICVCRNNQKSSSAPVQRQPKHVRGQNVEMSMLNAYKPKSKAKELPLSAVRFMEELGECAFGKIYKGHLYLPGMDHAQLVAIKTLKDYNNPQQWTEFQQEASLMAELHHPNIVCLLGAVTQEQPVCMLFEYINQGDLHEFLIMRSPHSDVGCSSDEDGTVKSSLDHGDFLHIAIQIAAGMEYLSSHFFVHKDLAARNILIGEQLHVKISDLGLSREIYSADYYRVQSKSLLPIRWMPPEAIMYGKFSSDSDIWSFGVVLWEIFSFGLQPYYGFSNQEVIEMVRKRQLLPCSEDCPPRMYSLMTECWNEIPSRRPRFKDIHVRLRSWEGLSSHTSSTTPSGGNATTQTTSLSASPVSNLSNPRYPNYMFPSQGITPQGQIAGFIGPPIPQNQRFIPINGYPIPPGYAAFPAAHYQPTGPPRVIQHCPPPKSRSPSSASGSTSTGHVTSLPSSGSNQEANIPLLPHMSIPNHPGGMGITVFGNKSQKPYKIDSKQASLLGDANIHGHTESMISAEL
T1 sequence (Q01973 30-403 limits assumed): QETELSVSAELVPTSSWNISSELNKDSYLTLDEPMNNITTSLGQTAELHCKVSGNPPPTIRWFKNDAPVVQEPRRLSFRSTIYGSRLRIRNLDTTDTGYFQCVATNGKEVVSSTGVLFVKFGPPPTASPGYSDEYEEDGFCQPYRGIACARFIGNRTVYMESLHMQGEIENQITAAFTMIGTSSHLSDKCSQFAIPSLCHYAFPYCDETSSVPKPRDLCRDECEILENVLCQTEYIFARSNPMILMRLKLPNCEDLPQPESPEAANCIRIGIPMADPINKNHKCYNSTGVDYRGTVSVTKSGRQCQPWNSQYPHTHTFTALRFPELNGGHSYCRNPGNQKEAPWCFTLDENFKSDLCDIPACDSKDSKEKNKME
T3 sequence (P07766 23-207, chain 1 of 4): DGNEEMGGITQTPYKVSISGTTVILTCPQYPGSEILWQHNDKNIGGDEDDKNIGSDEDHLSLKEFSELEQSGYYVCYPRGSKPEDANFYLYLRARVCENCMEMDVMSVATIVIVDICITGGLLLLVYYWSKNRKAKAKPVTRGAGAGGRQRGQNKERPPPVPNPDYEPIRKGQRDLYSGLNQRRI
T3 sequence (P09693 23-182, chain 2 of 4): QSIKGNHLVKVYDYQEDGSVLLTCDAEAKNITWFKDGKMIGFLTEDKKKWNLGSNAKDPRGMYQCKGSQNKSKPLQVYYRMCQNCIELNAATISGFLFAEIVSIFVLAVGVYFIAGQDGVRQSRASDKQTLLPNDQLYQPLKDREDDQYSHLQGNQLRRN
T3 sequence (P04234 22-171, chain 3 of 4): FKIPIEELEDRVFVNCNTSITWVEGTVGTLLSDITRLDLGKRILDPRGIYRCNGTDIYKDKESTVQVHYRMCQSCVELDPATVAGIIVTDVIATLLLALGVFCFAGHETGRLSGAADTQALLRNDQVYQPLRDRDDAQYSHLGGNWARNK
T3 sequence (P20963 22-164, chain 4 of 4): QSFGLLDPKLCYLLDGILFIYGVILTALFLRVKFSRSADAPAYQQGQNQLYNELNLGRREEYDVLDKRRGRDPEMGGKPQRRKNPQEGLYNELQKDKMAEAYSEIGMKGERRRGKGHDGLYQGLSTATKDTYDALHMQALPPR

B1: FUSE-453 (2A11 VHH mutant-Fc fusion protein) (Fc fusion)
chain: QVQLQESGGGSVPAGGSLRLSCAASGSTYSANVMGWFRQAPGKEREEVASMSIRSGRTYYSDSVKGRFTISQDGSKNTLYLQLNSLKAEDTALYYCAAAYGGSRVVYNYRGQGTQVTVSS
notes: also called mutant 2A11; 2A11-CV; not shown: human Fc
Take B1: the “fold lower affinity than FUSE-112” value in [1] is over 100 fold.

B2: FUSE-454 (5A1 VHH mutant-Fc fusion protein) (Fc fusion)
chain: QVQLQESGGGSVQAGGSLKLSCTASGYTNRLKVMGWFRQAPGKEREEIATISTGTGNTYYADSVKGRFTFSQDKVKNTVYLQMNTLKPDDTGMYYCAADVRPDGTTVHYNSGGQGTQVTVSS
notes: also called mutant 5A1; 5A1-CV; not shown: human Fc
Consider B2, for which the “fold lower affinity than the parent (printed FUSE-454, meant FUSE-179)” value in [1] was over 100 fold.

B3: FUSE-559 (h5A1-FA9-HK1 Fc) (Fc fusion)
chain: EVQLLESGGGLVQPGGSLRLSCTASGYTNRLKCMGWFRQAPGKEREEIASISTGTGNTYYADSVKGRFTISRDKSRNTLYLQMNTLRAEDTAVYYCAADVRPHGTTCHYNSRGQGTQVTVSS
notes: VHH-Fc format; also called humanized clone 5A1-FA9-HK1; not shown: Fc of the VHH-Fc format
With B3, the EC50 in test [2] was determined as 2.31 nM. Further, the “Max MFI” value in test [2] turned out to be 7600 MFI. Also, in test [3], the Kd was found to be 2.56 nM. In addition, the MFI in test [4] came out at 3120; in [5], 6080; in test [7] it was 199000; in test [9], 24400. In test [6], the kon was determined as 301000 M⁻¹ s⁻¹. Also, the koff in test [8] came to 0.00077 s⁻¹.

B4: FUSE-488 (5A1-Ac13) (bispecific antibody, human IgG1, lambda, L234A L235A)
heavy: EVQLVESGGGLVQPGGSLRLSCAASGFTFSTYAMNWVRQAPGKGLEWVARIRSKYNNYATYYADSVKDRFTISRDDSKNTLYLQMNSLRAEDTAVYYCARHGNFGNSYVSWFAYWGQGTMVTVSSASTKGPSVFPLAPSSKSTSGGTAALGCLVKDYFPEPVTVSWNSGALTSGVHTFPAVLQSSGLYSLSSVVTVPSSSLGTQTYICNVNHKPSNTKVDKKVEPKSCDKTHTCPPCPAPEAAGGPSVFLFPPKPKDTLMISRTPEVTCVVVDVSHEDPEVKFNWYVDGVEVHNAKTKPREEQYNSTYRVVSVLTVLHQDWLNGKEYKCKVSNKALPAPIEKTISKAKGQPREPQVYTLPPSREEMTKNQVSLSCAVKGFYPSDIAVEWESNGQPENNYKTTPPVLDSDGSFFLVSKLTVDKSRWQQGNVFSCSVMHEALHNRFTQKSLSLSPGK
chain: QVQLQESGGGSVQAGGSLKLSCTASGYTNRLKCMGWFRQAPGKEREEIATISTGTGNTYYADSVKGRFTFSQDKVKNTVYLQMNTLKPDDTGMYYCAADVRPDGTTCHYNSGGQGTQVTVSSEPKSSDKTHTCPPCPAPEAAGGPSVFLFPPKPKDTLMISRTPEVTCVVVDVSHEDPEVKFNWYVDGVEVHNAKTKPREEQYNSTYRVVSVLTVLHQDWLNGKEYKCKVSNKALPAPIEKTISKAKGQPREPQVYTLPPSREEMTKNQVSLWCLVKGFYPSDIAVEWESNGQPENNYKTTPPVLDSDGSFFLYSKLTVDKSRWQQGNVFSCSVMHEALHNHYTQKSLSLSPGK
light: QAVVTQEPSLTVSPGGTVTLTCRSSTGAVTTSNYANWVQQKPGQAPRGLIGGTNKRAPGTPARFSGSLLGGKAALTLSGVQPEDEAEYYCALWYSNLWVFGGGTKLTVLGQPKAAPSVTLFPPSSEELQANKATLVCLISDFYPGAVTVAWKADSSPVKAGVETTTPSKQSNNKYAASSYLSLTPEQWKSHRSYSCQVTHEGSTVEKTVAPTECSGGGGSGGGGSGGGGSGGGGSQVQLQESGGGSVQAGGSLKLSCTASGYTNRLKCMGWFRQAPGKEREEIATISTGTGNTYYADSVKGRFTFSQDKVKNTVYLQMNTLKPDDTGMYYCAADVRPDGTTCHYNSGGQGTQVTVSS
notes: also called humanized CD3 clone 1F3.3 x ROR1 VHH 5A1; non humanized 5A1 x 1F3-3 bsAb in format Ac13
As for B4, the 50% effective concentration (EC50) was determined as 19.2 nM in test [10] and 10.6 nM with human CD3 on T cells. Moreover, in [11], the MFI was 3910.

What is called EC50 is the concentration needed to bring the measured effect to its halfway point. Low readings indicate a more potent agent, high ones a less potent agent. One may read the Kd as a measure of binding affinity in units of concentration. The term kon denotes a measure of how fast the partners come together. For orientation: koff means the rate constant with which the complex falls apart.
